The target of experiment [1] is bovine brain aFGF (bovine, UniProt P03968, 125I-labeled). Nature of the experiment: chemical crosslinking (DSS) on CHO-K1 cells over-expressing newt KGFR, SDS-PAGE. As to the method: (§1) CHO cells transfected with pBJ5 vector (lane 1) or with newt KGFR expression vector (lanes 2–4) were crosslinked with ^125I-aFGF using 0.3 mM disuccinimidyl suberate (DSS). Excess amounts (500-fold) of aFGF (lane 3) or KGF (lane 4) were used to compete with ^125I-aFGF. Crosslinked products were analyzed on a 7.5% SDS-polyacrylamide gel.
(§2) To characterize the newt FGFR cDNA functionally, the newt KGFR were expressed in CHO-K1 cells. The mammalian expression vector, pBJ5, which contains a chimeric promoter derived from HTLV-I and SV40, was used to express the newt KGFR and FGFR2 cDNA. […] The crosslinked product can be successfully competed off with a 500-fold molar excess of cold aFGF or human recombinant KGF as shown in FIG. 11. The crosslinked product is absent in KPTr1-8, the CHO cells that were transfected with the pBJ5 vector alone. The crosslinked product thus appears to be specific. Similarly, a cell line over-expressing the human KGFR (T-1063-29-2 from S. A. Aaronson, NIH) was able to produce a somewhat smaller crosslinked product than the newt KGFR. Antibodies (both monoclonal and polyclonal) directed against a peptide from the carboxyl terminus of the newt FGFR2 are generated.

The target in experiment [2] is recombinant human aFGF (human, UniProt P05230, 125I-labeled). Briefly: Scatchard plot of 125I-aFGF binding to KPTr2-2 cells (CHO-K1 expressing newt KGFR).
Experiment [3] deals with T1, human recombinant KGF (human, UniProt P21781).
T1 sequence: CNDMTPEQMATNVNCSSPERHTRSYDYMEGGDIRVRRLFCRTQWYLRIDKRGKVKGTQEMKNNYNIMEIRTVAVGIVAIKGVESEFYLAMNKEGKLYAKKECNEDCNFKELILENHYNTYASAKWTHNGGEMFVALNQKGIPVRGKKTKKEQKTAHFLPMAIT
Nature of the experiment: competition of 125I-aFGF crosslinking on KPTr2-2 cells; competitor in 500-fold molar excess. As to the method:
as §1, §2

B1: newt KGFR (KGFR isoform, IIIb, of newt FGFR2; two Ig-like loop variant), expressed on CHO-K1 cells (KPTr2-2) (receptor)
chain: RPSYNIAEDTTLEPEDANSSGDDEDDNDGSEDFTNDNNHMRAPYWTNTEKLEKKLHAVPAANTVKFRCPAGGNPTPSMRWLKNGKEFKQEHRIGGFKVRSQHFSLIMESVVPSDEGNYTCIMENEYGSINHTYHLDVVERSPHRPILQAGLPANTTTKVGGDAEFVCKVYSDAQPHIQWIRHFELNGSKIGPDGHPYLKVLKRSGINSSNAEVLTLHNVTEADRGQYTCKVSNYIGEANQSAWLTVLPASEKDEERELDSSSEYTEIAIYCVGGFLITCMIGTIMVCHMKGRGKKSDFSSPPAVHKLSKSLPLRRQVTVSADSSSSMNSNTPLVRITTRLSSNNDTHLLAGVSEYELPEDPKWEYPREKLTLGKPLGEGCFGQVVMAEAVGIDKDRPKDAATVAVKMLKDDATEKDLSDLVSEMEMMKMIGKHKNIINLLGACTQDGPLYVIVEYASKGNLREYLRTRRPPGMEYSFDINRIPEEQMTFKDLVSCTYQLARGMEYLASQKCIHRDLAARNVLVTETNVMKIADFGLARDINNIDYYKKTTNGRLPVKWMAPEALFDRVYTHQSDVWSFGVLMWEIFTLGGSPYPGIPVEELFKLLKEGHRMDKPGNCTNELYTMMTDCWRAVPSQRPTFKQLVEDLDRILTQTTNEEYLDLNNPLEQYSPSYPDTRSSCSSGDDSVFSPDAMPYDPCLPKSQHTNGTIKT
As for B1, the binding result in experiment [1] and in experiment [3] was “binds” in each case. For the same molecule, the Kd in experiment [2] turned out to be 1.3 nM.

Source of the values: patent publication US5750365, “Isolated nucleic acid encoding a newt acidic fibroblast growth factor (AFGF)” (The Ohio State University Research Foundation, dated 1998).
